From US20050276800A1 (MEDICAL RESEARCH COUNCIL, published 2005)

Tests used:
[1] = target: T1, LexA DBD (made from the empty pBTM 116 vector) (UniProt P0A7C2 1-202, limits assumed); test: yeast two-hybrid (His growth, β-gal); data not shown
T1 construct: domain: LexA DBD; Bait-only control in the yeast two-hybrid assay
T1 sequence (looked up): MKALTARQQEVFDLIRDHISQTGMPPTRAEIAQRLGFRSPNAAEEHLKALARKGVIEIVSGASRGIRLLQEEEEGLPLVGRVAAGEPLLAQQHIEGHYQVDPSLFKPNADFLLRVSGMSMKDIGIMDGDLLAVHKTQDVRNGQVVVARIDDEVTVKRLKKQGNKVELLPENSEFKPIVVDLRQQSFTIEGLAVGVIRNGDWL

[2] = target: T2, Recombinant oncogenic HRAS (G12V; residues 1-166) (human, UniProt P01112 1-166); test: surface plasmon resonance (BIAcore 2000), HRASG12V-GppNp immobilised at about 1500 RU, purified scFv injected
T2 construct: range 1-166; ELISA and BIAcore: purified from bacteria and loaded with GppNp, a non-hydrolysable GTP analogue; Mammalian two-hybrid: codons 1-166 fused C-terminal to the GAL4 DBD (pM1-RASG12V); Yeast two-hybrid: truncated HRASG12V fused to the LexA DBD (pBTM116-RASG12V); The DBD parts are not written into the chain; also called HaRASG12V; Ha-RASG12V

[3] = target: T2, Recombinant oncogenic HRAS (G12V; …); test: SPR (BIAcore 2000); HRASG12V-GppNp immobilised on CM5 chip, purified scFv as analyte; BIAcore, purified bacterial scFv in vitro; weak micromolar binding

B1: anti-RAS scFv I21 (scFv)
scFv: EVQLLESGGGLVQPGGSLRLSCAASGFTFSSYAMSWVRQAPGKGLEWVSTISYGGSNTNYADSVKARFTISRDNSKNTLYLQMNSLRAEDTAVYYCAKGNNAFDYWGQGTLVTVSSGGGGSGGGGSGGGGSTDIQMTQSPSSLSASVGDRVTITCRASQSISSYLNWYQQKPGKAPKLLIYNASALQSGVPSRFSGSGSGTDFTLTISSLQPEDFATYYCQQYTSTPRTFGQGTKVEIKR
notes: also called ICAb I21
Question: Does B1 bind [1]?
Answer: Result: no binding

Question: What about the Kd [2] of the same binder?
Answer: The Kd was 1310 nM.

Question: What about the koff [2] of the same binder?
Answer: Its koff is 0.0212 s⁻¹.

Question: And the kon [2]?
Answer: Its kon is 16700 M⁻¹ s⁻¹.

Question: What about the Kd [3] of the same binder?
Answer: Its Kd is 2160 nM.
